Residue numbers refer to the chain shown, from its start. Like-named read-outs stand apart in the source and are kept apart here.
B1: 552-LN2-F8 hIgG1 (antibody, V domains shown)
VH: QIQLVQSGPELKKPGETVKISCKASGYTFTDYTMYWVKQAPGKGLKWMGWINTETGEPTYADDFKGRFVFSLETSANTAYLQINNLKNEDTATYFCAISYYYGMDYWGQGTSVTVTS
VL: DIILTQSPASLAVSLGQRATITCRASKSVSTSGYNFVYWYQQKPGQPPKLLIYLASNLESGVPARFSGSGSGTDFTLNIHPVEEEDAATYYCQHSRELPRTFGGGTKLEIKR
notes: Human-mouse chimeric antibody, human IgG1 format; also called [9]
B2: 538-SP5-B10 hIgG1 (antibody, V domains shown)
VH: EVQLQQSGPELVKPGASVKMSCKASGYTFTSYVMHWVKQKPGRGLEWIAYILPFNDVTKYNEKFKGKATLTSDKSSNTAYMELSSLTSEDSAVYYCARWEWDDGYFDYWGQGTTLTVSS
VL: DAVMTQTPLSLPVSLGDQASISCRSSQSLENSNGNTYLNWYLQKPGQSPQLLIYRVSNRFSGVLDRFSGSGSGTDFTLKISRVEAEDLGVYFCLQVSHVPFTFGAGTKLELKR
notes: Human-mouse chimeric antibody, human IgG1 format
B3: 539-SP1-C8 hIgG1 (antibody, V domains shown)
VH: EVQLQQSGPELVKPGSSVKMSCKASGYTFTNYVMHWVKQKPGQGLEWIGYILPYNDGTKYNEKFKGKATLTSDKSSSTAYMEFSVLTSEDSAVYYCARYDYEGSFDYWGQGTALTVSS
VL: DIQMTQTTSSLSASLGDRVTISCRASQDISNYLNWYQQKPDGTVKLLMCYTSRLHSGVPSRFSGSGSGTDFSLTISNLEQEDIATYFCQQGNTFPPTFGGGTKLEIKR
notes: Human-mouse chimeric antibody, human IgG1 format; also called [2]

What was measured:
[1] = biological target: T1, recombinant his-tagged human TACI (Sinobiological cat #11937-H08H) (human, UniProt O14836 1-165); assay: ELISA, coated His-tagged human TACI
T1 construct: Bought protein; also called Human TACI-His; huTACI; not shown: His tag
T1 sequence: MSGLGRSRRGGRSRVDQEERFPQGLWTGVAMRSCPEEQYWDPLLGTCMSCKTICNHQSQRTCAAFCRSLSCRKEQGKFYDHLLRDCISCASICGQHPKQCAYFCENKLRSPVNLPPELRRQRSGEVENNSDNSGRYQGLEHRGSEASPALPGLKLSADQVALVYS

[2] = biological target: T2, His-tagged human BCMA (Acro Biosystems, Cat. #BCA-H522y) (human, UniProt Q02223 1-54); assay: BLI, His-tagged human BCMA on HIS1K tip
T2 construct: also called huBCMA; P1; not shown: His tag
T2 sequence: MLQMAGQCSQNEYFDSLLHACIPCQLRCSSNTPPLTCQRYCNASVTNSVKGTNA

[3] = biological target: T3, His-tagged cynomolgous macaque BCMA (Acro Biosystems, BCA-C52H7) (cynomolgus macaque, UniProt Q02223 1-54 (human entry)); assay: ELISA, coated His-tagged cynomolgus BCMA
T3 construct: Bought protein; also called cyno BCMA; CyBCMA; not shown: His tag

[4] = biological target: T3, His-tagged cynomolgous macaque BCMA …; assay: BLI, His-tagged cynomolgus BCMA on HIS1K tip
[5] = biological target: T4, human BCMA expressed on cells (human, UniProt Q02223 1-184); assay: flow cytometry, H929 cells (BCMA-expressing)
T4 construct: the cell line is named under assay; also called wildtype human BCMA
T4 sequence: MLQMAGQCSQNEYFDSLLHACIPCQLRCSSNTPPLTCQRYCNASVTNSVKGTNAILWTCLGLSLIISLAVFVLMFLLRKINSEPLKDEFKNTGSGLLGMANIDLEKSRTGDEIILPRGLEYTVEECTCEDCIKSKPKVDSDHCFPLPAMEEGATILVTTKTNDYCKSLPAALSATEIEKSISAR

[6] = biological target: T2, His-tagged human BCMA (Acro Biosystems, …); assay: BLI, His-tagged human BCMA on HIS1K tip; R2 0.9973
[7] = biological target: T3, His-tagged cynomolgous macaque BCMA …; assay: BLI, His-tagged cynomolgus BCMA on HIS1K tip; R2 0.9625
[8] = biological target: T4, human BCMA expressed on cells; assay: flow cytometry, HEK293 cells stably expressing human BCMA
[9] = biological target: T2, His-tagged human BCMA (Acro Biosystems, …); assay: BLI, His-tagged human BCMA on HIS1K tip, no APRIL; R2 0.9901
[10] = biological target: T5, cynomolgous macaque BCMA expressed on CHOK1 cells; assay: flow cytometry, CHOK1 cells transiently expressing cynomolgus BCMA
T5 construct: also called cyno BCMA on cells

[11] = biological target: T2, His-tagged human BCMA (Acro Biosystems, …); assay: ELISA, coated His-tagged human BCMA
[12] = biological target: T1, recombinant his-tagged human TACI …; assay: ELISA, coated His-tagged human TACI; remark: listed apart in the source
[13] = biological target: T2, His-tagged human BCMA (Acro Biosystems, …); assay: ELISA, coated His-tagged human BCMA; remark: listed apart in the source
[14] = biological target: T1, recombinant his-tagged human TACI …; assay: ELISA, coated His-tagged human TACI; remark: listed apart in the source
BCMA Mut = biological target: T6, BCMA Mut (human, UniProt Q02223 1-184); assay: flow cytometry on HEK293T cells expressing BCMA Mut
T6 construct: Expressed on HEK293T cells; also called human BCMA comprising the substitutions Y13A, D15A, L17G and L18G
T6 chain: T4 sequence with Y13A, D15A, L17G, L18G

[15] = biological target: T7, His-tagged mouse BCMA (Acro Biosystems, BCA-M52H3) (mouse, UniProt O88472 1-49); assay: BLI, His-tagged mouse BCMA on HIS1K tip
T7 construct: Bought protein; not shown: His tag
T7 chain: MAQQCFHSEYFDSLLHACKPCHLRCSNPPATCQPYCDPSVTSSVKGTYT

[16] = biological target: T4, human BCMA expressed on cells; assay: flow cytometry, H929 cells (BCMA-expressing); remark: listed apart in the source
[17] = biological target: T2, His-tagged human BCMA (Acro Biosystems, …); assay: BLI, His-tagged human BCMA on HIS1K tip; R2 0.9919
[18] = biological target: T7, His-tagged mouse BCMA (Acro Biosystems, …); assay: BLI, His-tagged mouse BCMA on HIS1K tip; R2 0.9686
[19] = biological target: T4, human BCMA expressed on cells; assay: flow cytometry, HEK 293 cells expressing human BCMA
[20] = biological target: T8, human TACI expressed on cells (human, UniProt O14836 1-293); assay: flow cytometry, HEK 293 cells expressing human TACI
T8 construct: also called wildtype human TACI
T8 sequence: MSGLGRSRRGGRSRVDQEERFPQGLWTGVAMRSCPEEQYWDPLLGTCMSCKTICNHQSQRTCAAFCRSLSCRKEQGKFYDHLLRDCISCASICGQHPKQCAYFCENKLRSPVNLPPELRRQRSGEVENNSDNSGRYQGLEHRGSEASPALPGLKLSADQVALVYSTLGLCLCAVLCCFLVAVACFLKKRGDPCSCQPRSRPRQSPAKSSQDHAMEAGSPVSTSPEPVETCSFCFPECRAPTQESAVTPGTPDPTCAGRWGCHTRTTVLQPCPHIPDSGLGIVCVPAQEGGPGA

[21] = biological target: T3, His-tagged cynomolgous macaque BCMA …; assay: BLI, His-tagged cynomolgus BCMA on HIS1K tip; R2 0.9022
[22] = biological target: T4, human BCMA expressed on cells; assay: flow cytometry, HEK293 cells stably expressing human BCMA; remark: listed apart in the source
[23] = biological target: T2, His-tagged human BCMA (Acro Biosystems, …); assay: BLI, His-tagged human BCMA on HIS1K tip, no APRIL; R2 0.9919
[24] = biological target: T5, cynomolgous macaque BCMA expressed on …; assay: flow cytometry, CHOK1 cells transiently expressing cynomolgus BCMA; remark: listed apart in the source
[25] = biological target: T2, His-tagged human BCMA (Acro Biosystems, …); assay: competition ELISA: His-tagged human BCMA binding to coated APRIL-Fc in the presence of the antibody
[26] = biological target: T2, His-tagged human BCMA (Acro Biosystems, …); assay: BLI, His-tagged human BCMA on HIS1K tip; R2 0.9915
[27] = biological target: T7, His-tagged mouse BCMA (Acro Biosystems, …); assay: BLI, His-tagged mouse BCMA on HIS1K tip; R2 0.9403
[28] = biological target: T3, His-tagged cynomolgous macaque BCMA …; assay: BLI, His-tagged cynomolgus BCMA on HIS1K tip; R2 0.9915
[29] = biological target: T2, His-tagged human BCMA (Acro Biosystems, …); assay: BLI, His-tagged human BCMA on HIS1K tip, no APRIL; R2 0.9915

Row | Binder | Human BCMA response [2] | Cyno BCMA response [4] | EC50 (read off the curve) [5] | EC50 (read off the curve) [11] | EC50 (read off the curve) [12] | EC50 [13] | EC50 [14] | binding result (BCMA Mut) | Mouse BCMA response [15] | EC50 (read off the curve) [16] | EC50 [19] | EC50 [20] | EC50 (read off the curve) [22] | binding result [24] | IC50 [25] | also measured
1 | B1 | 2.31 | 1.58 | ~0.1 mg/L | – | – | – | – | – | – | – | – | – | – | – | – | binding result [1]: no binding (tested: 10 ug/ml); EC50 (read off the curve) [3]: ~0.08 mg/L; Kd [6]: < 0.001 nM; Kd [7]: 59.8 nM; EC50 (read off the curve) [8]: ~0.5 mg/L; Kd [9]: < 0.001 nM; binding result [10]: binds
2 | B2 | 2.35 | 0.895 | ~0.03 mg/L | ~0.01 mg/L | ~0.4 mg/L | 0.085 nM | 2.53 nM | no binding | 1.31 | ~1 nM | 0.21 nM | 24.1 nM | ~0.03 mg/L | binds | 0.39 nM | Kd [17]: < 0.001 nM; Kd [18]: 47.5 nM; Kd [21]: 31.4 nM; Kd [23]: < 0.001 nM
3 | B3 | 2.46 | 0.456 | ~0.02 mg/L | ~0.009 mg/L | ~0.01 mg/L | 0.059 nM | 0.083 nM | no binding | 0.86 | ~1 nM | 2.56 nM | 8.2 nM | ~0.4 mg/L | binds | 1.17 nM | Kd [26]: < 0.001 nM; Kd [27]: 29.5 nM; Kd [28]: 14.7 nM; Kd [29]: < 0.001 nM

— patent US20230374147A1 (HUMMINGBIRD BIOSCIENCE PTE, published 2023)
